Assay results as given in patent US20230002497A1 (INSERM INSTITUT NATIONAL DE LA SANTE ET DE LA RECHERCHE …, published 2023).

Molecular target: T1, recombinant human IL-20Rb (human, UniProt Q6UXL0 30-233)
T1 construct: also called human recombinant IL-20RB; recombinant IL-20RB
T1 sequence: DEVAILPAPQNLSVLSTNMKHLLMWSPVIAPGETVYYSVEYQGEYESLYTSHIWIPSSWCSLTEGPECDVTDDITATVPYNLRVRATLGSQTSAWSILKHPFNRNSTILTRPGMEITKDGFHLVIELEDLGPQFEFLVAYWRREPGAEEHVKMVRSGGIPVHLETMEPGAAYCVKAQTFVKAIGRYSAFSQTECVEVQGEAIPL
Test: ELISA on coated recombinant IL-20Rb (FIG. 8)

B1: B7 antibody (native B7 clone), human anti-IL-20Rb antibody (antibody, mouse IgG2a, V domains shown)
VH: EVQLVESGGSLVKPGGSLRLSCAASGFTFSNYSMNWVRQAPGKGLEWISYISGSSRYISYADFVKGRFTISRDNATNSLYLQMNSLRAEDTAVYYCVRSYYGMDVWGRGTLVTVSS
VL: QSVLTQPASVSGSPGQSITISCAGTSSDVGGNYYVSWYQQHPGKAPKLMIYGDSYRPSGVSNRFSGSKSGNTASLTISGLQAEDEADYYCSSYTYYSTRVFGGGTKLAVLG
B1: binds.
